Substitutions are numbered along the chain they refer to. Entries after “also recorded” stand apart in the source; their conditions may differ.
Assays:
[1] = target: T1, human big-ET-1 (SEQ ID NO:434) (Homo sapiens, UniProt P05305); assay: MALDI-TOF detection of C-term peptide product from cleavage of big-ET-1 by mouse ECE-1; assay type: biochemical; set-up: purchased R&D Systems (mouse ECE-1 only)
T1 sequence (P05305 53-90 limits assumed): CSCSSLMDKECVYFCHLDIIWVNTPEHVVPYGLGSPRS
Source text: Matrix Assisted Laser Desorption Ionization Time of Flight (MALDI-TOF) mass spectrometry was used to determine if selected anti-big-ET-1 antibodies could block the conversion of human big-ET-1 (SEQ ID NO:434) or mouse big-ET-1 (SEQ ID NO:437) into its respective peptides in the presence of mouse endothelin converting enzyme 1 (ECE-1). Human big-ET-1 is specifically cleaved by mECE-1 at Trp-21/Val-22 forming both biologically active small-ET-1 (SEQ ID NO:435; MH^+ 2474) and a non-active C-term product (amino acids 22-38 of SEQ ID NO:434; MH^+ 1809). Mouse big-ET-1 is cleaved at Trp-21/VaI-22 into small-ET-1 (SEQ ID NO:435; MH^+ 2474) and its non-active C-term product (amino acids 22-39 of SEQ ID NO:437; MH^+ 1875). The appearance or absence of these masses, in the presence of antibody, can be monitored by MALDI-TOF. In the example below, the presence or absence of the C-term products served as an indicator for big-ET-1 cleavage since these peptides ionize more efficiently than small-ET-1 (SEQ ID NO:435; MH^+ 2474), thereby yielding a more sensitive readout.
Briefly, human or mouse big-ET-1 (0.5 μM) was mixed with antibody (2.5 μM), in phosphate buffered saline (PBS), at a 1:5 molar ratio (big-ET-1:mAb). After a 1-hr incubation (25° C.), mouse ECE-1 (R&D Systems) was added at 40 nM and the solution was placed at 37° C. Aliquots for mass spectrometry analysis were taken at 0, 15, 30 and 60 minutes. Each aliquot was desalted via C18 Ziptip (Millipore) and analyzed in reflextron-positive mode using a Bruker Ultraflextreme MALDI-TOF instrument (Bruker Daltonics).

[2] = target: T2, mouse big-ET-1 (SEQ ID NO:437) (Mus musculus, UniProt P22387); assay: Surface plasmon resonance (Biacore) binding, mAb capture format, 37° C.
T2 sequence (P22387 53-91 limits assumed): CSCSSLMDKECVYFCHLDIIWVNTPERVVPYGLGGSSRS
Protocol: (§1) Measurements were conducted on a T200 Biacore instrument (Biacore Life Sciences division of GE Healthcare, Piscataway, N.J.). […] Different concentrations of small-ET-1 (SEQ ID NO:435), human big-ET-1 (SEQ ID NO:434) or mouse big-ET-1 (SEQ ID NO:437) were injected over the anti-big-ET-1 captured surfaces at a flow rate of 100 μl/min. Peptide binding was monitored for 3 min while dissociation of mAb-bound peptide was monitored for 4 min in HBST running buffer (0.01 M HEPES pH 7.4, 0.15 M NaCl, 3 mM EDTA, 0.005% v/v Surfactant P20). Kinetic association (ka) and dissociation (kd) rate constants were determined by processing and fitting the data to a 1:1 binding model using Scrubber 2.0 curve fitting software.

[3] = target: T1, human big-ET-1 (SEQ ID NO:434); assay: as above; settings: for ka / kd: analyte human big-ET-1, mAb capture
Protocol: as §1

[4] = system: C57BL/6 mice challenged with human big-ET-1 peptide; assay: Mean arterial pressure changes after human big-ET-1 challenge in catheterized mice; assay type: in vivo, mouse
Protocol: The purpose of this Example was to evaluate the ability of an exemplary anti-big-ET-1 antibody (H2M6490N) to block […] increases in arterial pressure. Mice that had been previously infused with either blocking anti-big-ET-1 antibody or isotype control were challenged with big-ET-1 peptide. Changes in arterial pressure stemming from either big-ET-1 endogenous conversion to small-ET-1, or having its conversion blocked by circulating anti-big-ET-1 antibody, were measured. To facilitate real time measurements of arterial pressure during these experiments, mice were catheterized using standard protocols.
Briefly, naïve Taconic C57BL/6 mice (8-10 weeks of age) were anesthetized with isoflurane and the skin overlying the carotid artery and jugular vein was cut. Both the right jugular vein and left carotid artery were isolated, taking care not to damage the Vagus nerve or other blood vessels. Using standard techniques, the jugular vein was retracted and a 32-gauge needle (bent at a 90° angle) was used to puncture the vein for insertion of a saline-filled jugular vein catheter. The left carotid artery was then isolated and a Millar Micro-Tip® catheter was introduced using standard protocols. During all procedures a temperature probe was used to monitor animal body temperature, which was kept around 36.5° C. using a Gaymar heated water circulating pad. The above procedures allowed real-time pressure measurements (systolic pressure, diastolic pressure, mean arterial pressure, and body temperature) to be recorded during all big ET-1 challenge experiments.
In the first study, 150 μg (˜2 mg/kg; 1×10^−9 Moles) of H2M6490N or isotype control mAb was injected i.v. using the jugular vein port followed by a bolus of saline to flush the catheter. This caused a slight and transient drop in pressure that returned to baseline and established the T=0 for the experiment.
In a second experiment, the same experimental protocol was utilized except that H2M6490N (˜2 mg/kg; 1×10^−9 Moles) was injected subcutaneously (s.c.) into the mice 24 hrs before challenge with human big-ET-1 peptide.

[5] = target: T3, human big-ET-1 (cleavage by human ECE-1) (Homo sapiens, UniProt P05305); assay: NFAT luciferase reporter assay (293/ETaR/NFAT-Luc cells) for blocking of ECE-1-mediated cleavage; assay type: cell-based; settings: read-out: Blocking IC50 10 nM hBig-ET-1 + 3 nM hECE1; human Fc mAbs (Table 5)
T3 sequence (P05305 53-90 limits assumed): T1 sequence (P05305 53-90 limits assumed)
Protocol: (§2) Briefly, HEK293 cell lines were generated to stably express full-length human endothelin receptor type A (ETaR) along with a luciferase reporter element [NFAT (4×)-luciferase]. A single clone was isolated and maintained in 10% FBS, DMEM, NEAA, Pen/Strep, and 500 μg/ml G418 and 100 μg/ml hygromycin B.
(§3) Both human and mouse big-ET-1 blocking experiments were allowed to incubate (37° C.; 5% CO2) overnight. The next morning these solutions were added to the 293/ETaR/NFAT-Luc cells (20,000 cells/well) and luciferase activity was detected after 5.5 hrs (37° C.; 5% CO2) using a Victor X plate reader (Perkin Elmer). The amount of luciferase activity observed under these conditions is a proportional representation of the amount of small-ET-1 generated from cleavage of either mouse or human big-ET-1.

[6] = target: T4, mouse big-ET-1 (cleavage by mouse ECE-1) (Mus musculus, UniProt P22387); assay: as above; assay type: cell-based; settings: read-out: Blocking IC50 20 nM mBig-ET-1 + 5 nM mECE1; human Fc mAbs (Table 5)
T4 sequence (P22387 53-91): T2 sequence (P22387 53-91 limits assumed)
Protocol: as §2, §3

B1: H2M6490N: anti-big-ET-1 antibody, mouse IgG2 Fc; HCVR/LCVR SEQ ID NO: 18/26 (antibody, V domains shown)
VH: EVQLLESGGGLVQPGGSLRLSCAASGFTFSSYAMTWVRQAPGKGLECISAISGSGYSTYYADSMKGRFSISRDNSKNTLYLQMNRLRAEDTAVYYCTKGGRILEWLLPFDFWGQGTLVTVSS
VL: DVVMTQSPLSLPVTLGQPASISCRSSQSLVYSDGNTYLIWFQQRPGQSPRRLIYKVSNRDSGVPDRFSGSGSGTDFTLIISRVEAEDVGLYYCMQGTHWPPTFGGGTKVEIK
modifications: mouse IgG2 Fc
cleavage of human big-ET-1 by mouse ECE-1 (in words) [1]: no C-term product was detected
Detection of C-term Peptide Product, 0 min ([1]; Human big-ET-1, mouse ECE-1, 0 min): −
Detection of C-term Peptide Product, 15 min ([1]; Human big-ET-1, mouse ECE-1, 15 min): −
Detection of C-term Peptide Product, 30 min ([1]; Human big-ET-1, mouse ECE-1, 30 min): −
Detection of C-term Peptide Product, 60 min ([1]; Human big-ET-1, mouse ECE-1, 60 min): −
binding to mouse big-ET-1 (in words) [2]: did not show any binding
Kd ([2]; analyte mouse big-ET-1, mAb capture, KD=kd/ka): > 1000 nM
binding to human big-ET-1 (in words) [3]: high affinity binding
ka [3]: 209000 M/s
kd [3]: 0.00399 s⁻¹
Mean Pressure Change ([4]; Study 1: antibody 150 μg i.v., time 0 min, cumulative big-ET-1 0.00E+00 Moles): 0 mmHg
Mean Pressure Change ([4]; Study 1: antibody i.v., time 30 min, cumulative big-ET-1 3.85E−11 Moles, mAb:big-ET-1 26.0): −0.6 ± 2.6 mmHg
Mean Pressure Change ([4]; Study 1: antibody i.v., time 45 min, cumulative big-ET-1 1.16E−10 Moles, mAb:big-ET-1 8.7): −1.0 ± 3.5 mmHg
Mean Pressure Change ([4]; Study 1: antibody i.v., time 60 min, cumulative big-ET-1 2.32E−10 Moles, mAb:big-ET-1 4.3): 4.0 ± 4.7 mmHg
Mean Pressure Change ([4]; Study 1: antibody i.v., time 75 min, cumulative big-ET-1 4.66E−10 Moles, mAb:big-ET-1 2.1): 18.2 ± 9.6 mmHg
Mean Pressure Change ([4]; Study 1: antibody i.v., time 90 min, cumulative big-ET-1 8.16E−10 Moles, mAb:big-ET-1 1.2): 32.5 ± 20.8 mmHg
Mean Pressure Change ([4]; Study 1: antibody i.v., time 105 min, cumulative big-ET-1 1.28E−09 Moles, mAb:big-ET-1 0.8): 25.1 ± 8.3 mmHg
Mean Pressure Change ([4]; Study 1: antibody i.v., time 120 min, cumulative big-ET-1 1.87E−09 Moles, mAb:big-ET-1 0.5): −15.4 ± 8.2 mmHg
Mean Pressure Change ([4]; Study 2: antibody s.c. ~24 hr before challenge, time 0 min, cumulative big-ET-1 0.00E+00 Moles): 0 mmHg
Mean Pressure Change ([4]; Study 2: antibody s.c. ~24 hr before, time 30 min, cumulative big-ET-1 3.85E−11 Moles, ratio 26.0): 1.7 mmHg
Mean Pressure Change ([4]; Study 2: antibody s.c. ~24 hr before, time 45 min, cumulative big-ET-1 1.16E−10 Moles, ratio 8.7): 7.6 mmHg
Mean Pressure Change ([4]; Study 2: antibody s.c. ~24 hr before, time 60 min, cumulative big-ET-1 2.32E−10 Moles, ratio 4.3): 14.9 mmHg
Mean Pressure Change ([4]; Study 2: antibody s.c. ~24 hr before, time 75 min, cumulative big-ET-1 4.66E−10 Moles, ratio 2.1): 52.1 mmHg
Mean Pressure Change ([4]; Study 2: antibody s.c. ~24 hr before, time 90 min, cumulative big-ET-1 8.16E−10 Moles, ratio 1.2): 45.8 mmHg
Mean Pressure Change ([4]; Study 2: antibody s.c. ~24 hr before, time 105 min, cumulative big-ET-1 1.28E−09 Moles, ratio 0.8): 12.0 mmHg
arterial pressure response to human big-ET-1 challenge (in words) ([4]; ~2 mg/kg antibody, 30 min (i.v.) or 24 hr (s.c.) before challenge): maintained baseline mean arterial pressure until the amount of human big-ET-1 peptide approached the molar equivalent of antibody on board; also recorded: maintained normal arterial pressures longer than those mice that were treated with isotype control antibody; also recorded: effective in inhibiting endothelin-1-mediated elevation in arterial pressure in vivo

B2: H4H6490N2: anti-big-ET-1 antibody, human IgG4 Fc; HCVR/LCVR SEQ ID NO: 402/410 (antibody, V domains shown)
VH: B1 VH with C47W
VL: B1 VL
modifications: human IgG4 Fc
IC50 [5]: > 100 nM
IC50 [6]: > 100 nM

B3: H4H6492N2: anti-big-ET-1 antibody, human IgG4 Fc; HCVR/LCVR SEQ ID NO: 418/426 (antibody, V domains shown)
VH: EVQLVESGGGLVKPGGSLRVSCVASGFTFSNAWMTWVRQTPGKGLEWVGRIKSRTDGGTVDYVAPVKGRFTISRDDSKNTLYLQMNSLKAEDTAVYYCRADLDYWGQGTLVTVSS
VL: DVVMTQSPLSLPVSLGQPASISCRSSQSLVHSDGITYLNWFQQRPGQSPRRLIYKISNRDSGVPDRFSGSGSGTDFTLKFSRVEAEDVGVYFCMQGTHWPYTFGQGTKLEIK
modifications: human IgG4 Fc
IC50 [6]: > 100 nM
ka [3]: 424000 M/s
kd [3]: 0.0297 s⁻¹

— patent US9751932B2, “Anti-big-endothelin-1 (big-ET-1) antibodies and uses thereof” (Regeneron Pharmaceuticals, Inc., priority 2012, dated 2017)
